Values of other authors in patent US20250177452A1, “USE OF IMMUNOSUPPRESSION TO ENABLE ENGRAFTMENT OF HEMATOPOIETIC STEM CELLS” (The Board of Trustees of the Leland Stanford Junior …, priority 2022, published 2025).

Key:
CD52 = target: T1, CD52 (Homo sapiens, UniProt P31358); conditions: single injection
T1 construct: CD52 is expressed on 95% of peripheral blood lymphocytes, monocytes and thymocytes; host or cells: endogenous CD52 on peripheral blood lymphocytes in vivo

[1] = in vivo

Molecule	depletion of lymphocytes (CD52)	maximum tolerated dose (MTD) [1]
Alemtuzumab: recombinant humanized monoclonal antibody against CD52	over 99%	
IMGN901: CD56-targeting antibody-drug conjugate delivering the cytotoxic maytansinoid DM1 (conjugate, chains of the INN, looked up, DM1 maytansinoid payload, CD56-targeting antibody-drug conjugate delivering the cytotoxic maytansinoid DM1) VH: QVQLVESGGGVVQPGRSLRLSCAASGFTFSSFGMHWVRQAPGKGLEWVAYISSGSFTIYYADSVKGRFTISRDNSKNTLYLQMNSLRAEDTAVYYCARMRKGYAMDYWGQGTLVTVSS VL: DVVMTQSPLSLPVTLGQPASISCRSSQIIIHSDGNTYLEWFQQRPGQSPRRLIYKVSNRFSGVPDRFSGSGSGTDFTLKISRVEAEDVGVYYCFQGSHVPHTFGQGTKVEIK		about 75 mg/m^2
